The results in this text go back to paper PMC2602789.

In this experiment the target is wild-type Tn3 resolvase (bacterial transposon Tn3) (UniProt P0ADI2). Kind of experiment: SEC.

As a reminder, the stoichiometry N is the number of molecules, sites or subunits per partner or assembly. As for “wild-type Tn3 resolvase (from UniProt P0ADI2 1-185) (enzyme)”, the stoichiometry N was determined as 2.
